Consider one substance from PMC12344693, “Human Milk Oligosaccharides Multivalently Presented on Defined Synthetic Neo-Glycoproteins Are Nanomolar Ligands of Tandem-Repeat Galectins” (Biomacromolecules, 2025).

Where two headings read alike, the source gives them in different places.

Assay [1] deals with T1, Gal-4 (Homo sapiens, UniProt P56470).
T1 construct: Full-length recombinant human galectins (Gal-1, Gal-3, Gal-4, Gal-8, and Gal-9) for ELISA assays; made in house; host or cells: E. coli Rosetta 2(DE3)pLysS
T1 sequence (P56470 1-323): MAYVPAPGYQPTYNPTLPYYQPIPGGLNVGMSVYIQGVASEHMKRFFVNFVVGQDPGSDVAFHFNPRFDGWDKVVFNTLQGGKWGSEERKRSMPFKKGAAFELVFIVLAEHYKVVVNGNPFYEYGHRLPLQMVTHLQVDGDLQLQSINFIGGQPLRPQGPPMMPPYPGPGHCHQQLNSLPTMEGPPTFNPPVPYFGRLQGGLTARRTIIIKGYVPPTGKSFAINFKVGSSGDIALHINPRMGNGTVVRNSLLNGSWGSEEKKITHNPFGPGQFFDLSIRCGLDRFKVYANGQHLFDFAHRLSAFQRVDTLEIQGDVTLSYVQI
Description: direct ELISA, galectin binding to immobilized asialofetuin. Conditions: AVI-tagged Gal-4, read-out: KD for ASF, AVI-tag. The procedure:
(§1) detailed in the main text.
(§2) respective galectin in EPBS (50 μL/well).

Assay [2] deals with T2, Gal-4C (Homo sapiens, UniProt P56470).
T2 construct: Tandem-repeat galectins consist of an N-terminal and a C-terminal carbohydrate recognition domain (CRD) interconnected with a peptide linker; His-tag; made in house; host or cells: E. coli
T2 sequence (P56470 194-323 limits assumed): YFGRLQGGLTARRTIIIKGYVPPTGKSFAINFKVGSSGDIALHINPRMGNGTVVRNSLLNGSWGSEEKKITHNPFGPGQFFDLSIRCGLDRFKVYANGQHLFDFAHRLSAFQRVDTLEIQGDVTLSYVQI
The description is as above. Conditions: AVI-tagged Gal-4C, read-out: KD for ASF, AVI-tag. Here is the method:
as §1, §2

Assay [3] addresses T3, Gal-4N (Homo sapiens, UniProt P56470).
T3 construct: Tandem-repeat galectins consist of an N-terminal and a C-terminal carbohydrate recognition domain (CRD) interconnected with a peptide linker; His-tag; made in house; host or cells: E. coli
T3 sequence (P56470 19-150 limits assumed): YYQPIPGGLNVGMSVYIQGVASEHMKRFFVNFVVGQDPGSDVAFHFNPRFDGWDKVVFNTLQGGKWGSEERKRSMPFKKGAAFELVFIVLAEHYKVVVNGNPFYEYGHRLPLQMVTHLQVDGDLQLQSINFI
Described as above. Conditions: AVI-tagged Gal-4N, read-out: KD for ASF, AVI-tag. The procedure: as §1, §2

The target in assay [4] is T4, Gal-8 (Homo sapiens, UniProt O00214).
T4 construct: Full-length recombinant human galectins (Gal-1, Gal-3, Gal-4, Gal-8, and Gal-9) for ELISA assays; made in house; host or cells: E. coli Rosetta 2(DE3)pLysS
T4 sequence (O00214 1-317): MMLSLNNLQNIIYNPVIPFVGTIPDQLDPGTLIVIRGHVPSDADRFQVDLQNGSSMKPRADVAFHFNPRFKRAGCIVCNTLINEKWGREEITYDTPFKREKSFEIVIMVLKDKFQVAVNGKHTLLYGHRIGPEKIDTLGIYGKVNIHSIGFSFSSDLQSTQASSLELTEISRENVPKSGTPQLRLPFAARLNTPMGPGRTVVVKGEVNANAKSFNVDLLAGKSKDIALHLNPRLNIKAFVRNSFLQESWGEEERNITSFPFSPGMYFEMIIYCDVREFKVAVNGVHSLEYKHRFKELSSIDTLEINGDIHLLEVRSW
The assay is described as above. Conditions: AVI-tagged Gal-8, read-out: KD for ASF, AVI-tag. The procedure: as §1, §2

Assay [5] deals with T5, Gal-8C (Homo sapiens, UniProt O00214).
T5 construct: Tandem-repeat galectins consist of an N-terminal and a C-terminal carbohydrate recognition domain (CRD) interconnected with a peptide linker; His-tag; made in house; host or cells: E. coli
T5 sequence (O00214 187-317 limits assumed): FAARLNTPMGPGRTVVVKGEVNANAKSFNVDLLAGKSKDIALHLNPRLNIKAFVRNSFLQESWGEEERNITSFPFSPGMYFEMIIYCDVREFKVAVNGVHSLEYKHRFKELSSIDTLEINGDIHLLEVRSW
Described as above. Conditions: AVI-tagged Gal-8C, read-out: KD for ASF, AVI-tag. Here is the method:
as §1, §2

Assay [6] has as its target T6, Gal-8N (Homo sapiens, UniProt O00214).
T6 construct: Tandem-repeat galectins consist of an N-terminal and a C-terminal carbohydrate recognition domain (CRD) interconnected with a peptide linker; His-tag; made in house; host or cells: E. coli
T6 sequence (O00214 19-152 limits assumed): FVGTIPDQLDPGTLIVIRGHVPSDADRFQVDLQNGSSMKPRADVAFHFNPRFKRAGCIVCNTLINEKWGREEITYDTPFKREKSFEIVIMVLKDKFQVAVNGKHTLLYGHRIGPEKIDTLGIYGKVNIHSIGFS
The assay is described as above. Conditions: AVI-tagged Gal-8N, read-out: KD for ASF, AVI-tag. Here is the method:
as §1, §2

Assay [7] concerns the target T7, Gal-9 (Homo sapiens, UniProt O00182, A222P/DEL149-219).
T7 construct: Full-length recombinant human galectins (Gal-1, Gal-3, Gal-4, Gal-8, and Gal-9) for ELISA assays; made in house; host or cells: E. coli Rosetta 2(DE3)pLysS
The description is as above. Conditions: AVI-tagged Gal-9, read-out: KD for ASF, AVI-tag. The procedure: as §1, §2

Assay [8] has as its target T8, Gal-9C (Homo sapiens, UniProt O00182, A222P).
T8 construct: Tandem-repeat galectins consist of an N-terminal and a C-terminal carbohydrate recognition domain (CRD) interconnected with a peptide linker; His-tag; made in house; host or cells: E. coli
Described as above. The following applies: AVI-tagged Gal-9C, read-out: KD for ASF, AVI-tag. The procedure: as §1, §2

For assay [9], the target named is T9, Gal-9N (Homo sapiens, UniProt O00182, DELINS149-222HPP).
T9 construct: Tandem-repeat galectins consist of an N-terminal and a C-terminal carbohydrate recognition domain (CRD) interconnected with a peptide linker; His-tag; made in house; host or cells: E. coli
The description is as above. Conditions: AVI-tagged Gal-9N, read-out: KD for ASF, AVI-tag. The procedure:
as §1, §2

The target in assay [10] is T1, Gal-4. More on the design: method as in ref 11 (a number printed in a supplementary file, which may have a reference list of its own: not looked up in the article's list). Conditions: direct ELISA; His-tagged Gal-4; read-out: KD for ASF, His-tag; cited from earlier work. In general terms: In an ELISA, binding on a coated surface is turned into a signal by an enzyme label.

The target of assay [11] is T3, Gal-4N. Further details: method as in ref 11 (a number printed in a supplementary file, which may have a reference list of its own: not looked up in the article's list). The following applies: direct ELISA; His-tagged Gal-4N; read-out: KD for ASF, His-tag; cited from earlier work.
Assay [12] addresses T2, Gal-4C. More on the design: method as in ref 11 (a number printed in a supplementary file, which may have a reference list of its own: not looked up in the article's list). Conditions: direct ELISA; His-tagged Gal-4C; read-out: KD for ASF, His-tag; cited from earlier work.
Assay [13] addresses T4, Gal-8. Further details: method as in ref 19 (a number printed in a supplementary file, which may have a reference list of its own: not looked up in the article's list). Conditions: direct ELISA; His-tagged Gal-8; read-out: KD for ASF, His-tag; cited from earlier work.
The target of assay [14] is T6, Gal-8N. Further details: method as in ref 19 (a number printed in a supplementary file, which may have a reference list of its own: not looked up in the article's list). The following applies: direct ELISA; His-tagged Gal-8N; read-out: KD for ASF, His-tag; cited from earlier work.
Assay [15] addresses T5, Gal-8C. Further details: method as in ref 19 (a number printed in a supplementary file, which may have a reference list of its own: not looked up in the article's list). The following applies: direct ELISA; His-tagged Gal-8C; read-out: KD for ASF, His-tag; cited from earlier work.
The target in assay [16] is T7, Gal-9. Further details: method as in ref 19 (a number printed in a supplementary file, which may have a reference list of its own: not looked up in the article's list). Conditions: direct ELISA; His-tagged Gal-9; read-out: KD for ASF, His-tag; cited from earlier work.
Assay [17] concerns the target T9, Gal-9N. Further details: method as in ref 19 (a number printed in a supplementary file, which may have a reference list of its own: not looked up in the article's list). The following applies: direct ELISA; His-tagged Gal-9N; read-out: KD for ASF, His-tag; cited from earlier work.
The target in assay [18] is T8, Gal-9C. Further details: method as in ref 19 (a number printed in a supplementary file, which may have a reference list of its own: not looked up in the article's list). Conditions: direct ELISA; His-tagged Gal-9C; read-out: KD for ASF, His-tag; cited from earlier work.

The Kd is the concentration at which binding is half-saturated.

T7 sequence (O00182 with tags, fused parts or gaps DEL149-219/A222P): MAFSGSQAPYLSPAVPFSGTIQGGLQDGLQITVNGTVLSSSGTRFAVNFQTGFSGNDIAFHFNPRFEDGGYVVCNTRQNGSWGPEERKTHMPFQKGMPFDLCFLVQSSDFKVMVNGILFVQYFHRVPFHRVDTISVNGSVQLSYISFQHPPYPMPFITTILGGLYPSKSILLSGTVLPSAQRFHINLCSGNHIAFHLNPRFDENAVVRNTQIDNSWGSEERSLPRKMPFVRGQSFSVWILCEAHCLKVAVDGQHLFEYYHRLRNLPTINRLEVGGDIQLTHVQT
T9 sequence (O00182 with tags, fused parts or gaps DELINS149-222HPP): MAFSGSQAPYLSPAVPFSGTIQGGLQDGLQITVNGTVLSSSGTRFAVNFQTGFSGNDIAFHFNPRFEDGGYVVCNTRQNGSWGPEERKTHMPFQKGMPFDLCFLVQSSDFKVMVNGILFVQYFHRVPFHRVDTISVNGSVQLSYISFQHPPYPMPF
T8 sequence (O00182 220-355 A222P): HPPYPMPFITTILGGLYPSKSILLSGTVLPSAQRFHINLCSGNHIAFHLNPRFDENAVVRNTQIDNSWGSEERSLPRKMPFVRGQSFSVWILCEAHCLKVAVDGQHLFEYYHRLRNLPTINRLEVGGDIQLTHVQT

For the substance “ASF: asialofetuin, glycoprotein immobilized on ELISA plates as galectin ligand”, the Kd with Gal-4 [1] was 2.3 ± 0.8 µM; with Gal-4C [2] it was 6.5 ± 1.2 µM; with Gal-4N [3] it was 17 ± 2 µM; in the assay with Gal-8 [4], 0.32 ± 0.13 µM; with Gal-8C [5] it was 11 ± 2 µM; with Gal-8N [6], 4.6 ± 1.3 µM. For the same substance, the Kd with Gal-9 [7] is 0.18 ± 0.05 µM; with Gal-9C [8], 4.9 ± 0.4 µM; with Gal-9N [9], 11 ± 4 µM; with Gal-4 [10] it was 3.3 ± 1.1 µM; with Gal-4N [11] it was 38 ± 3 µM; with Gal-4C [12], 19 ± 2 µM. Besides, the dissociation constant Kd with Gal-8 [13] was 0.14 ± 0.06 µM; in the assay with Gal-8N [14], 2.3 ± 0.5 µM; with Gal-8C [15] it was 9.4 ± 0.4 µM; in the assay with Gal-9 [16] it was 0.15 ± 0.04 µM; in the assay with Gal-9N [17], 25 ± 6 µM; in the assay with Gal-9C [18], 3.6 ± 0.5 µM.
